In patent US20250099534A1 (TECHNION RESEARCH AND DEVELOPMENT FOUNDATION, published 2025):
Starred links: 1 amine or outer side, 2 acyl side, 3 side chain; linkers in the order of their positions; H or OH if unused. Positions of bridges follow the written chain, without caps; N, C: chain ends. Primed or numbered codes have the meaning given here. No end group written: not given here. *: point of attachment. mClBz(3) = 3-(chloromethyl)benzoic acid, non-amino acid initiator forming a thioether with the C-terminal-region Cys, O=C(c1cccc(C[*:3])c1)[*:2]; mClBz(4) = 3-(chloromethyl)benzoic acid initiator, its benzyl thioether with a Cys side chain closes the ring, O=C(c1cccc(C[*:3])c1)[*:2]; mClBz = N-terminal group cyclised as a benzyl thioether to a Cys, O=C(c1cccc(C[*:3])c1)[*:2]; C10F9 = S-aryl group from decafluorobiphenyl, Fc1c(F)c(F)c(-c2c(F)c(F)c(*)c(F)c2F)c(F)c1F; C6F5 = pentafluorophenyl group on the Cys sulfur, Fc1c(F)c(F)c(*)c(F)c1F

B1: cyclic peptide 1 (CP1) (peptide)
peptide: {mClBz(4)}-LLIWIGSSKNPYILCG-NH2
modifications: thioether N-15
SMILES: CC[C@H](C)[C@@H]1NC(=O)[C@H](Cc2c[nH]c3ccccc23)NC(=O)[C@H]([C@@H](C)CC)NC(=O)[C@H](CC(C)C)NC(=O)[C@H](CC(C)C)NC(=O)c2cccc(c2)CSC[C@@H](C(=O)NCC(N)=O)NC(=O)[C@H](CC(C)C)NC(=O)[C@H]([C@@H](C)CC)NC(=O)[C@H](Cc2ccc(O)cc2)NC(=O)[C@@H]2CCCN2C(=O)[C@H](CC(N)=O)NC(=O)[C@H](CCCCN)NC(=O)[C@H](CO)NC(=O)[C@H](CO)NC(=O)CNC1=O
notes: Found by RaPID selection, then made by Fmoc-SPPS; also called lead cyclic peptide 1

Key:
[1] = target: T1, biotinylated-Lys63 linked Di-Ub (UniProt P0CG47 1-76, isopeptide bond between the C-terminal Gly of the distal Ub and Lys63 of the proximal Ub; biotin tag at the N-terminus of the distal Ub); test: SPR (BIACORE T100), biotinylated Lys63 Di-Ub on a CAPture chip
T1 construct: mature; Immobilised on streptavidin plates or on the SPR CAPture chip; also called K63-linked Di-Ub; biotin-Lys63 linked Di-Ub
Experimental: The binding of cyclic peptide 1 (CP1) against the target, Lys63 linked Di-Ub was determined using BIACORE T100 instrument (GE Healthcare) equipped with a biotin CAPture kit series S chip. 50 mM HEPES (pH=7.30, 150 mM NaCl, 0.05% Tween 20, 2.0 mM DTT, 0.2% DMSO) was used as buffer. Biotinylated-Lys63 linked Di-Ub was loaded on the SPR chip. By using various concentrations of peptide.

[2] = target: T1, biotinylated-Lys63 linked Di-Ub; test: fluorescence-based competitive assay: unlabeled peptide, 5.0 molar equiv., pre-bound to biotinylated Lys63-linked Di-Ub on a streptavidin plate, then competed with CP1-FITC (1 equiv.); signal change relative to 1 (CP1), Y=[1-(a/b)]x100
Experimental: Streptavidin-coated microplate (96 well plate) was washed with HEPES buffer (50 Mm HEPES, 150 Mm NaCl, pH 7.30) and then in each well incubated 1 μg of biotinylated-Lys63-linked Di-Ub in 100 μl of the same buffer at RT. for 30 min. Additional wells were kept without biotinylated-Lys63-Di-Ub for blank subtraction. After the washing step, peptide standard (CP1) and unlabeled peptides were incubated (5.0 molar equivalent relative to biotin-Lys63-linked Di-Ub) at RT for 30 minutes for saturation binding to the target. Then 1 molar equivalent of FITC labeled peptide-standard (CP1-FITC) relative to biotinylated-Lys63-linked Di-Ub was incubated to compete with unlabeled peptides at RT for 30 min. After releasing bounded peptides on treatment with 6 M Guanidinium chloride (Gnd·HCl), the fluorescence values were measured (λex=480 nm and λem=525 nm). These values were normalized and then calculated the relative change in binding with the following formula:
Y=[1−(a/b)]×100 [0289] Where Y=Signal change relative to the standard (CP1) (in terms of %). [0290] a=Measured signal value of each peptide candidate (in Relative Fluorescence Units). [0291] b=Measured signal value of standard peptide (CP1). The dissociation constant (KD) of fluorescein-labeled peptide (CP1-FITC) was calculated in accordance with the literature procedure (Vamisetti G B et al., 2021).

Lys48-linked Tetra-Ub = target: T2, Lys48-linked Tetra-Ub (UniProt P0CG47 1-76, isopeptide bonds between the C-terminal Gly and Lys48 of successive Ub units); test: fluorescence-based assay of relative binding on Lys48-linked Tetra-Ub, normalised to Ub4_ix; the labelled competitor is not named [panel headed '(iv) Binding of 1 and 2 against Lys48 Tetra-Ub as a target' (v) of the legend]
T2 construct: mature

Lys48-linked Di-Ub = target: T3, Lys48-linked Di-Ub (UniProt P0CG47 1-76, isopeptide bond between the C-terminal Gly of one Ub and Lys48 of the other); test: fluorescence-based assay of relative binding on Lys48-linked Di-Ub, normalised to mJ08-L8W; the labelled competitor is not named [iv]
T3 construct: mature

Binder | Kd [1] | binding result [2] | binding result (Lys48-linked Tetra-Ub) | binding result (Lys48-linked Di-Ub)
B1 | 16 nM |  |  | 
{mClBz(3)}-C(7‑methoxycoumarin‑4‑ylmethyl)LIWIGSSKNPYILCG (bridge N-15; not fully specified (C-terminus, bridges)) [cyclic peptide 19, CP1-L1C-CH2C10H7O3] |  | binds |  | 
mClBz-C(C6F5)LIWIGSSKNPYILCG (thioether N-15) [cyclic peptide 20, CP1-L1C-C6F5] |  | binds |  | 
mClBz-C(C10F9)LIWIGSSKNPYILCG (thioether N-15) [cyclic peptide 21, CP1-L1C-C10F9] |  | binds |  | 
mClBz-CLIWIGSSKNPYILCG (bridge N-15; not fully specified (C-terminus, bridges), also called CP2) [cyclic peptide 2 (CP1-L1C)] |  | binds | binds | binds
